Results on two molecules are retold here after patent publication US20250129146A1, “COMBINED CANCER THERAPY WITH AN EPITHELIAL CELL ADHESION MOLECULE (EPCAM) INHIBITOR AND A WNT INHIBITOR” (ACADEMIA SINICA, priority 2021, published 2025).

One test has as its target T1, EpCAM (Homo sapiens, UniProt P16422).
T1 construct: HEK293T cells were transfected with full length or EGF like-domain deletion mutant EpCAM-V5; V5; expressed in transfected cells; host or cells: HEK293T
T1 sequence (P16422 24-314): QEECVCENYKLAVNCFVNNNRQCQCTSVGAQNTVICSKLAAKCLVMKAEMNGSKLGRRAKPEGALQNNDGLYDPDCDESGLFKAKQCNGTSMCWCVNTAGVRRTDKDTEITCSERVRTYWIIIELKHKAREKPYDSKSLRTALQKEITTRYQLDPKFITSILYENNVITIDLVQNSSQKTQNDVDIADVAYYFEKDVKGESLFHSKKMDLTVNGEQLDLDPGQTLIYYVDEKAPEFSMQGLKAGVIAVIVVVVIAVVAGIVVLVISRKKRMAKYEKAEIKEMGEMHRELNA
As to conditions: general description of other anti-EpCAM antibodies; cited from earlier work.

The target in a further test is T2, recombinant FZD6 (Homo sapiens, UniProt O60353).
T2 construct: purchased Proteintech
T2 sequence (O60353 19-706): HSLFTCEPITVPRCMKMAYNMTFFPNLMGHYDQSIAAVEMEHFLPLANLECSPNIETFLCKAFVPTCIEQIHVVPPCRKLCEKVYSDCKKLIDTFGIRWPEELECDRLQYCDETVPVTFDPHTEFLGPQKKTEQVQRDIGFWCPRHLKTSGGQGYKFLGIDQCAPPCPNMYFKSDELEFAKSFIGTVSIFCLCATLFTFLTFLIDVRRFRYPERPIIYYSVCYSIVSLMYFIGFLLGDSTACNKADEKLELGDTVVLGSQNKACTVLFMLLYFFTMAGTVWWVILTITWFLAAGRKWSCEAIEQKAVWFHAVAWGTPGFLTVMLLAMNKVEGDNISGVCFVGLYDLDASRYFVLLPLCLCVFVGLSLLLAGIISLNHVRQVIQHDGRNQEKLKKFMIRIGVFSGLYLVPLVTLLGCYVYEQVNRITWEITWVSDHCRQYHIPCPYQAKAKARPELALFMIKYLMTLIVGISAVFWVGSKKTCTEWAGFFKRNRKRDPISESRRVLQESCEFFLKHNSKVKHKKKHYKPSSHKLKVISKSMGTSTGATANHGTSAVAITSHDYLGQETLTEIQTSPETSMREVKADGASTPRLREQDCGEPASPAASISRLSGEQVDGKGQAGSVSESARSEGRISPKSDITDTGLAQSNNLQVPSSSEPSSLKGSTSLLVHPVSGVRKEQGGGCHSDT
The test can be described thus: ELISA of EpEX binding to Wnt receptor-coated plates (FZD6). Particulars: EpEX-His alone, 2 hours; optical density at 450 nm. How it is done:
For ELISA, wells (at least 6 wells per single protein) were coated with recombinant FZD6 (Proteintech), recombinant FZD7 (Proteintech), recombinant LRP5 (Proteintech), recombinant LRP6 (Proteintech) overnight at 4° C. The wells were then blocked with 1% BSA and treated with EpEX-his (Produced in house by Expi293 Expression System) for 2 hours. Otherwise, EpEX-His was incubated with EpAb2-6 overnight and the complex was used to treat the protein-coated plates for 2 hours. Further anti-His antibody (abeam) was used and TMB was performed to record optical density at 450 nm.

“Also recorded” adds a separate entry of the source.

As for “MT201: adecatumumab, a human anti-EpCAM antibody that was subjected to clinical trials [reference compound]”, the EpCAM domains bound result with EpCAM was “target only the well-described EGF I domain of EpCAM; also recorded: binding to domain I only”.

B1: EpEX: extracellular domain of EpCAM, produced in house by Expi293 Expression System (protein)
chain: T1 sequence (P16422 24-314)
B1: the “EpEX binding to FZD6” value with recombinant FZD6 is reported as “bind with all receptor proteins”.
